In patent US20090098108A1:

Columns and labels:
[1] = biological target: GLP-1 peptide (UniProt P01275)
[2] = biological target: wt GLP-1 mimetibody construct (GLP-1 MMB), IgG1 scaffold (UniProt P01275)
[3] = biological target: GLP-1 receptor on Rinm cells; test: cell-based or functional assay

Sequence of GLP-1 peptide (P01275 98-127): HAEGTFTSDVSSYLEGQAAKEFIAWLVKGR
Sequence of wt GLP-1 mimetibody construct (GLP-1 MMB), IgG1 scaffold (P01275 whole entry, looked up): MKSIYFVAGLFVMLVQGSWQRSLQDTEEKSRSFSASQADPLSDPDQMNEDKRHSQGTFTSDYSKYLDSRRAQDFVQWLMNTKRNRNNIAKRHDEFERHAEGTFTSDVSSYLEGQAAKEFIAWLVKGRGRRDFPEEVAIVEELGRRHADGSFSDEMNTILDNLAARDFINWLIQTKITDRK

| concentration dependent cAMP activity, EC50 (Rinm cells) [3] | Substance | DPP-IV cleavage assay (intact peptide by GLP-1 Active ELISA) [1] | DPP-IV cleavage assay (intact MMB by GLP-1 Active ELISA) [2] |
| --- | --- | --- | --- |
| – | DPP-IV (R&D Systems) | The GLP-1 MMB was significantly more resistant to cleavage by DPP-IV, relative to the GLP-1 peptide | The GLP-1 MMB was significantly more resistant to cleavage by DPP-IV, relative to the GLP-1 peptide |
| 0.4 nM | GLP-1 peptide (from UniProt P01275 98-127) | – | – |
| 11 nM | wt GLP-1 mimetibody construct (GLP-1 MMB), IgG1 scaffold (from UniProt P01275 98-128) (Fc fusion) | – | – |
